± gives the standard deviation of the averaged measurements.
B1: library; a variant is named by its letters at N, in order (parent)
chain: GCUGUCACCGGUGCUUGGUACGUUAUAUUCAGCCGGUCUGAUGAGUCUNNNNNNAGACGAAACAGC

What was measured:
(6R,S)-folinic acid [1] = variants of: B1; experiment: normalized RNA/DNA level without ligand (relative to sTRSVctl = 100) (log10 (% of sTRSVctl)); HEK293T overexpressing SLC46A1; higher = less ribozyme self-cleavage, higher mRNA level; conditions: without (6R,S)-folinic acid; ligand present: no
Outline: (§1)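 Ribozyme switch library plasmids linked to reporters were introduced into HEK293T cells at 4 µg per 6-well well, with ligand, if any, added 1 h before. Total RNA was extracted with EDTA 72 h later, reverse-transcribed, amplified, barcoded and sequenced. RNA level was computed from RNA over DNA reads relative to a spiked-in non-cleaving sequence or the top sequences, then scaled and log-transformed. The top set was 25 sequences, values were ×100 and log10, and the cutoff was ≥100 DNA reads.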

(6R,S)-folinic acid [2] = variants of: B1; experiment: normalized RNA/DNA level with ligand (relative to sTRSVctl = 100) (log10 (% of sTRSVctl)); HEK293T overexpressing SLC46A1; ligand concentration (+) RNA-Seq: 6 mM; higher = less ribozyme self-cleavage, higher mRNA level; conditions: with (6R,S)-folinic acid; ligand present: yes
Outline: as §1

## CAUCGG
(6R,S)-folinic acid [1]
  normalized RNA/DNA level without ligand (log10): 1.99 ± 0.024
(6R,S)-folinic acid [2]
  normalized RNA/DNA level with ligand (log10): 2.02 ± 0.026

## CAUCGA
(6R,S)-folinic acid [1]
  normalized RNA/DNA level without ligand (log10): 2.045 ± 0.0027
(6R,S)-folinic acid [2]
  normalized RNA/DNA level with ligand (log10): 2.06 ± 0.026

## AAGGGC
(6R,S)-folinic acid [1]
  normalized RNA/DNA level without ligand (log10): 2.0351 ± 4.5e-05
(6R,S)-folinic acid [2]
  normalized RNA/DNA level with ligand (log10): 2.05 ± 0.045

## AAGGGG
(6R,S)-folinic acid [1]
  normalized RNA/DNA level without ligand (log10): 1.902 ± 0.011
(6R,S)-folinic acid [2]
  normalized RNA/DNA level with ligand (log10): 2.038 ± 0.011

## AAGUUC
(6R,S)-folinic acid [1]
  normalized RNA/DNA level without ligand (log10): 2.031 ± 0.017
(6R,S)-folinic acid [2]
  normalized RNA/DNA level with ligand (log10): 2.02 ± 0.054

## AAGUUU
(6R,S)-folinic acid [1]
  normalized RNA/DNA level without ligand (log10): 2.009 ± 0.017
(6R,S)-folinic acid [2]
  normalized RNA/DNA level with ligand (log10): 2.01 ± 0.033

## UAGCUG
(6R,S)-folinic acid [1]
  normalized RNA/DNA level without ligand (log10): 1.9 ± 0.021
(6R,S)-folinic acid [2]
  normalized RNA/DNA level with ligand (log10): 2.026 ± 0.016

## UAGCUU
(6R,S)-folinic acid [1]
  normalized RNA/DNA level without ligand (log10): 2.001 ± 0.012
(6R,S)-folinic acid [2]
  normalized RNA/DNA level with ligand (log10): 2.02 ± 0.029

## UAGCUC
(6R,S)-folinic acid [1]
  normalized RNA/DNA level without ligand (log10): 2.08 ± 0.017
(6R,S)-folinic acid [2]
  normalized RNA/DNA level with ligand (log10): 2.0396 ± 0.002

## UAGCUA
(6R,S)-folinic acid [1]
  normalized RNA/DNA level without ligand (log10): 1.9994 ± 0.0013
(6R,S)-folinic acid [2]
  normalized RNA/DNA level with ligand (log10): 2.03 ± 0.048

## CAGGCA
(6R,S)-folinic acid [1]
  normalized RNA/DNA level without ligand (log10): 2.022 ± 0.019
(6R,S)-folinic acid [2]
  normalized RNA/DNA level with ligand (log10): 2.009 ± 0.0063

## CAGGCC
(6R,S)-folinic acid [1]
  normalized RNA/DNA level without ligand (log10): 2.06 ± 0.046
(6R,S)-folinic acid [2]
  normalized RNA/DNA level with ligand (log10): 2.02 ± 0.049

## CAGGCG
(6R,S)-folinic acid [1]
  normalized RNA/DNA level without ligand (log10): 2.02 ± 0.023
(6R,S)-folinic acid [2]
  normalized RNA/DNA level with ligand (log10): 2.03 ± 0.029

## AAGGAC
(6R,S)-folinic acid [1]
  normalized RNA/DNA level without ligand (log10): 1.966 ± 0.0074
(6R,S)-folinic acid [2]
  normalized RNA/DNA level with ligand (log10): 1.99 ± 0.037

## UAUACA
(6R,S)-folinic acid [1]
  normalized RNA/DNA level without ligand (log10): 1.965 ± 0.003
(6R,S)-folinic acid [2]
  normalized RNA/DNA level with ligand (log10): 2.01 ± 0.05

## GAUCGG
(6R,S)-folinic acid [1]
  normalized RNA/DNA level without ligand (log10): 2.084 ± 0.015
(6R,S)-folinic acid [2]
  normalized RNA/DNA level with ligand (log10): 2.07 ± 0.04

## GAUCGU
(6R,S)-folinic acid [1]
  normalized RNA/DNA level without ligand (log10): 2.02 ± 9.8e-05
(6R,S)-folinic acid [2]
  normalized RNA/DNA level with ligand (log10): 2.02 ± 0.052

## GAUCGA
(6R,S)-folinic acid [1]
  normalized RNA/DNA level without ligand (log10): 2.033 ± 0.008
(6R,S)-folinic acid [2]
  normalized RNA/DNA level with ligand (log10): 2.02 ± 0.036

## GAUCGC
(6R,S)-folinic acid [1]
  normalized RNA/DNA level without ligand (log10): 1.998 ± 0.016
(6R,S)-folinic acid [2]
  normalized RNA/DNA level with ligand (log10): 2.032 ± 0.014

## CAGUAU
(6R,S)-folinic acid [1]
  normalized RNA/DNA level without ligand (log10): 1.951 ± 0.0075
(6R,S)-folinic acid [2]
  normalized RNA/DNA level with ligand (log10): 2.016 ± 0.013

## CAGUAG
(6R,S)-folinic acid [1]
  normalized RNA/DNA level without ligand (log10): 1.93 ± 0.023
(6R,S)-folinic acid [2]
  normalized RNA/DNA level with ligand (log10): 1.99 ± 0.052

## CAGUAC
(6R,S)-folinic acid [1]
  normalized RNA/DNA level without ligand (log10): 1.96 ± 0.036
(6R,S)-folinic acid [2]
  normalized RNA/DNA level with ligand (log10): 1.97 ± 0.04

## UAUAUU
(6R,S)-folinic acid [1]
  normalized RNA/DNA level without ligand (log10): 1.9864 ± 0.0015
(6R,S)-folinic acid [2]
  normalized RNA/DNA level with ligand (log10): 2.01 ± 0.042

## UAUAUC
(6R,S)-folinic acid [1]
  normalized RNA/DNA level without ligand (log10): 2.027 ± 0.0026
(6R,S)-folinic acid [2]
  normalized RNA/DNA level with ligand (log10): 2.01 ± 0.036

## UAUAUA
(6R,S)-folinic acid [1]
  normalized RNA/DNA level without ligand (log10): 1.944 ± 0.0099
(6R,S)-folinic acid [2]
  normalized RNA/DNA level with ligand (log10): 2 ± 0.034

## CAGCGU
(6R,S)-folinic acid [1]
  normalized RNA/DNA level without ligand (log10): 1.999 ± 0.0031
(6R,S)-folinic acid [2]
  normalized RNA/DNA level with ligand (log10): 1.99 ± 0.053

## CAGCGG
(6R,S)-folinic acid [1]
  normalized RNA/DNA level without ligand (log10): 1.984 ± 0.0099
(6R,S)-folinic acid [2]
  normalized RNA/DNA level with ligand (log10): 2.06 ± 0.029

## CAGCGA
(6R,S)-folinic acid [1]
  normalized RNA/DNA level without ligand (log10): 2.03 ± 0.0044
(6R,S)-folinic acid [2]
  normalized RNA/DNA level with ligand (log10): 2.002 ± 0.0065

## CAGCGC
(6R,S)-folinic acid [1]
  normalized RNA/DNA level without ligand (log10): 2.046 ± 0.016
(6R,S)-folinic acid [2]
  normalized RNA/DNA level with ligand (log10): 2.01 ± 0.039

## AAGCUA
(6R,S)-folinic acid [1]
  normalized RNA/DNA level without ligand (log10): 1.991 ± 0.0072
(6R,S)-folinic acid [2]
  normalized RNA/DNA level with ligand (log10): 2 ± 0.024

## AAGCUC
(6R,S)-folinic acid [1]
  normalized RNA/DNA level without ligand (log10): 2.055 ± 0.019
(6R,S)-folinic acid [2]
  normalized RNA/DNA level with ligand (log10): 2.054 ± 0.014

## AAGCUG
(6R,S)-folinic acid [1]
  normalized RNA/DNA level without ligand (log10): 2.01 ± 0.0066
(6R,S)-folinic acid [2]
  normalized RNA/DNA level with ligand (log10): 2.048 ± 0.0075

## AAGCUU
(6R,S)-folinic acid [1]
  normalized RNA/DNA level without ligand (log10): 2.01 ± 0.019
(6R,S)-folinic acid [2]
  normalized RNA/DNA level with ligand (log10): 2.012 ± 0.0064

## CAGGUC
(6R,S)-folinic acid [1]
  normalized RNA/DNA level without ligand (log10): 2.08 ± 0.0023
(6R,S)-folinic acid [2]
  normalized RNA/DNA level with ligand (log10): 2.04 ± 0.045

## CAGGUU
(6R,S)-folinic acid [1]
  normalized RNA/DNA level without ligand (log10): 2 ± 0.032
(6R,S)-folinic acid [2]
  normalized RNA/DNA level with ligand (log10): 2 ± 0.022

## CAGUUG
(6R,S)-folinic acid [1]
  normalized RNA/DNA level without ligand (log10): 2.041 ± 0.0043
(6R,S)-folinic acid [2]
  normalized RNA/DNA level with ligand (log10): 2.06 ± 0.013

## CAGUUU
(6R,S)-folinic acid [1]
  normalized RNA/DNA level without ligand (log10): 1.989 ± 0.011
(6R,S)-folinic acid [2]
  normalized RNA/DNA level with ligand (log10): 2.03 ± 0.039

## CAUGUA
(6R,S)-folinic acid [1]
  normalized RNA/DNA level without ligand (log10): 1.947 ± 0.0027
(6R,S)-folinic acid [2]
  normalized RNA/DNA level with ligand (log10): 1.99 ± 0.047

## GAGAUG
(6R,S)-folinic acid [1]
  normalized RNA/DNA level without ligand (log10): 1.926 ± 0.0081
(6R,S)-folinic acid [2]
  normalized RNA/DNA level with ligand (log10): 2.02 ± 0.035

## GAGAUU
(6R,S)-folinic acid [1]
  normalized RNA/DNA level without ligand (log10): 2.017 ± 0.0046
(6R,S)-folinic acid [2]
  normalized RNA/DNA level with ligand (log10): 2.01 ± 0.022

## GAGAUA
(6R,S)-folinic acid [1]
  normalized RNA/DNA level without ligand (log10): 1.993 ± 0.011
(6R,S)-folinic acid [2]
  normalized RNA/DNA level with ligand (log10): 2.03 ± 0.026

## GAGAUC
(6R,S)-folinic acid [1]
  normalized RNA/DNA level without ligand (log10): 2.038 ± 0.0061
(6R,S)-folinic acid [2]
  normalized RNA/DNA level with ligand (log10): 2.001 ± 0.014

## AAUGGA
(6R,S)-folinic acid [1]
  normalized RNA/DNA level without ligand (log10): 1.925 ± 0.0083
(6R,S)-folinic acid [2]
  normalized RNA/DNA level with ligand (log10): 1.99 ± 0.033

## AAUGGC
(6R,S)-folinic acid [1]
  normalized RNA/DNA level without ligand (log10): 1.997 ± 0.012
(6R,S)-folinic acid [2]
  normalized RNA/DNA level with ligand (log10): 2.029 ± 0.019

## GAUAAG
(6R,S)-folinic acid [1]
  normalized RNA/DNA level without ligand (log10): 1.917 ± 0.0057
(6R,S)-folinic acid [2]
  normalized RNA/DNA level with ligand (log10): 2 ± 0.033

## AAGCGU
(6R,S)-folinic acid [1]
  normalized RNA/DNA level without ligand (log10): 1.956 ± 0.0071
(6R,S)-folinic acid [2]
  normalized RNA/DNA level with ligand (log10): 2.02 ± 0.04

## AAGCGG
(6R,S)-folinic acid [1]
  normalized RNA/DNA level without ligand (log10): 1.941 ± 0.005
(6R,S)-folinic acid [2]
  normalized RNA/DNA level with ligand (log10): 2 ± 0.054

## AAGCGA
(6R,S)-folinic acid [1]
  normalized RNA/DNA level without ligand (log10): 1.95 ± 0.02
(6R,S)-folinic acid [2]
  normalized RNA/DNA level with ligand (log10): 2.02 ± 0.048

## AAGCGC
(6R,S)-folinic acid [1]
  normalized RNA/DNA level without ligand (log10): 2.025 ± 0.0081
(6R,S)-folinic acid [2]
  normalized RNA/DNA level with ligand (log10): 2.03 ± 0.05

## AAUAGC
(6R,S)-folinic acid [1]
  normalized RNA/DNA level without ligand (log10): 1.985 ± 0.013
(6R,S)-folinic acid [2]
  normalized RNA/DNA level with ligand (log10): 2 ± 0.058

## GAGUAU
(6R,S)-folinic acid [1]
  normalized RNA/DNA level without ligand (log10): 1.982 ± 0.0044
(6R,S)-folinic acid [2]
  normalized RNA/DNA level with ligand (log10): 2.014 ± 0.02

## AAUGCU
(6R,S)-folinic acid [1]
  normalized RNA/DNA level without ligand (log10): 2.022 ± 0.01
(6R,S)-folinic acid [2]
  normalized RNA/DNA level with ligand (log10): 2.02 ± 0.045

## AAUGCC
(6R,S)-folinic acid [1]
  normalized RNA/DNA level without ligand (log10): 2.026 ± 0.012
(6R,S)-folinic acid [2]
  normalized RNA/DNA level with ligand (log10): 2.03 ± 0.03

## UAUGAA
(6R,S)-folinic acid [1]
  normalized RNA/DNA level without ligand (log10): 1.873 ± 0.016
(6R,S)-folinic acid [2]
  normalized RNA/DNA level with ligand (log10): 1.98 ± 0.023

## UAGAUU
(6R,S)-folinic acid [1]
  normalized RNA/DNA level without ligand (log10): 1.98 ± 0.0065
(6R,S)-folinic acid [2]
  normalized RNA/DNA level with ligand (log10): 2.01 ± 0.047

## UAGAUC
(6R,S)-folinic acid [1]
  normalized RNA/DNA level without ligand (log10): 2.0543 ± 0.0014
(6R,S)-folinic acid [2]
  normalized RNA/DNA level with ligand (log10): 2.06 ± 0.055

## UAGAUA
(6R,S)-folinic acid [1]
  normalized RNA/DNA level without ligand (log10): 1.961 ± 0.0041
(6R,S)-folinic acid [2]
  normalized RNA/DNA level with ligand (log10): 2.01 ± 0.025

## CAUGCA
(6R,S)-folinic acid [1]
  normalized RNA/DNA level without ligand (log10): 1.996 ± 0.0096
(6R,S)-folinic acid [2]
  normalized RNA/DNA level with ligand (log10): 2.01 ± 0.022
